These are literature values, as cited in publication PMC2652250.

The Kd is the constant that tells how readily two partners part at equilibrium.

This data set deals with cardiac troponin I 147-163 (Homo sapiens) (UniProt P19429). In words: NMR.

As to “cardiac troponin C (cNTnC) N-terminal domain (from UniProt P63316)”, the Kd was 154 µM.
